In article PMC12316933 (2025):

Columns and labels:
Experiment in all cases: BLI
[1] = target: T1, PT09 N2 (recombinant N2 neuraminidase head of H3N2 A/Perth/16/2009) (Influenza A virus H3N2 A/Perth/16/2009)
T1 chain: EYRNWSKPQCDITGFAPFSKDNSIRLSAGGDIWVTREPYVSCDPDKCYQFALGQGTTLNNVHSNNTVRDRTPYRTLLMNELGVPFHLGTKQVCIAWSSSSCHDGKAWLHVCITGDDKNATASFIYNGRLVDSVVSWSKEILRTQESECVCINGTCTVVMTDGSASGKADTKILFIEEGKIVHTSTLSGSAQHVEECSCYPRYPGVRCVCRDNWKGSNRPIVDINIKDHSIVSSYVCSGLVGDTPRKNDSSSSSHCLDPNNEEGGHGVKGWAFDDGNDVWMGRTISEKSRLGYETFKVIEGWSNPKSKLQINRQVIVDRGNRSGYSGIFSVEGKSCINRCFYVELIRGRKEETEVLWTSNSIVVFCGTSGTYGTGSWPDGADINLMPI

[2] = target: IN11 N2 (recombinant N2 neuraminidase head of H3N2 A/Indiana/08/2011) (Influenza A virus H3N2 A/Indiana/08/2011)
[3] = target: CO17 B NA (recombinant neuraminidase head of B/Colorado/06/2017, B/Victoria-lineage) (Influenza B virus B/Colorado/06/2017)

B1: DA03E17 IgG (human monoclonal antibody) (antibody, V domains shown)
VH: EVQLVESGPGLVKPSQTLSLTCTVSGGSFSSGGYLWSWVRQHPGKGLEWIGYILYSGSPYYNPSLESRATISLDTSKNQFSLRLISVTAADAAMYYCARVDGSGNTDRYYFYGMDVWGQGTMVTVSS
VL: DIQMTQSPSSVSASVGDRVTITCRASRGIGDWLAWYQQKPGKAPKLLIYAASSLQRGVPSRFSGSGSGTDFTLTISSLQPDDFATYYCQQADGWEVWTFGQGTKVDVK
B1 was tested, and the Kd [1] was less than 0.001 nM, the Kd [2] was less than 0.001 nM and the Kd [3] was 0.969 nM.

B2: DA03E17 Fab (Fab, V domains shown)
VH: B1 VH
VL: B1 VL
B2 showed a Kd [1] of 31 nM, a Kd [2] of 4.53 nM and a Kd [3] of 913 nM.
